Common to all, as to test: EMSA
One series addresses T1, MotA D43K (bacteriophage T4, UniProt P22915 1-211, D43K).
T1 sequence: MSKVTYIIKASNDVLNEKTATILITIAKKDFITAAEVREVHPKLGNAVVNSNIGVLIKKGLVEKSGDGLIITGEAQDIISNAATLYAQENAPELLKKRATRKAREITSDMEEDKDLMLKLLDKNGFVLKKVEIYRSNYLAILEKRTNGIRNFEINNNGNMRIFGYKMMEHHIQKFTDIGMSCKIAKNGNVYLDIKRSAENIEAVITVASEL

The target in a further series is T2, MotA K28E (bacteriophage T4, UniProt P22915 1-211, K28E).
T2 sequence: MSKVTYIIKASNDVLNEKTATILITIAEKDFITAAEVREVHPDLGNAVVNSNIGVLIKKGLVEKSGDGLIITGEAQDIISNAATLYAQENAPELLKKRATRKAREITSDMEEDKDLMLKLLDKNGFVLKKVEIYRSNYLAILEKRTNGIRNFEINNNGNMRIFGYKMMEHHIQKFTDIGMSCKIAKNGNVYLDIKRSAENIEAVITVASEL

The target of another series is T3, MotA Q76R (bacteriophage T4, UniProt P22915 1-211, Q76R).
T3 sequence: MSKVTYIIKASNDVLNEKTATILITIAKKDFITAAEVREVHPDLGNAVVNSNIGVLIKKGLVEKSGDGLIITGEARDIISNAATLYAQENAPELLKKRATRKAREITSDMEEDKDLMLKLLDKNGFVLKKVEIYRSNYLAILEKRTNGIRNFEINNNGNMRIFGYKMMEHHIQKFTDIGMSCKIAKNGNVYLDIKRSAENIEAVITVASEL

A further series concerns the target T4, MotA K59E (bacteriophage T4, UniProt P22915 1-211, K59E).
T4 sequence: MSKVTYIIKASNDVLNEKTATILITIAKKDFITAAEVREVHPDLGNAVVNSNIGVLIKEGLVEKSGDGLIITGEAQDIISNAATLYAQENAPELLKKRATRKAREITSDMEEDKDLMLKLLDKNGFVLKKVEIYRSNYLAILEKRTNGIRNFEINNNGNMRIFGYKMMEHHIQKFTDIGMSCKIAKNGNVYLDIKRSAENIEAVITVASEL

A further series has as its target T5, MotA S80R (bacteriophage T4, UniProt P22915 1-211, S80R).
T5 sequence: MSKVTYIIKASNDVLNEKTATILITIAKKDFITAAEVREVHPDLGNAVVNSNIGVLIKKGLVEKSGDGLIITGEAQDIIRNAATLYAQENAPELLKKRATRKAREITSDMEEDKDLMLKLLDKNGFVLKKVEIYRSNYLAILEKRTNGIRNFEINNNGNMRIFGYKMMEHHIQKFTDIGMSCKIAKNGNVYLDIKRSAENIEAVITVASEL

The target in the next series is T6, MotA K3E (bacteriophage T4, UniProt P22915 1-211, K3E).
T6 sequence: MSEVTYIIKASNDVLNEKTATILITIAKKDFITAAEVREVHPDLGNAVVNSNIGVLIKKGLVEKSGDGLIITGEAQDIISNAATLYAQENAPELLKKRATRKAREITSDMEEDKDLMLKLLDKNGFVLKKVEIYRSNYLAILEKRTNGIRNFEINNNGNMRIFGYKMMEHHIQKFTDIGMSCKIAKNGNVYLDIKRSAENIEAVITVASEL

B1: 21 bp MotA box DNA (dsDNA)
DNA 1: GAATTATTTGCTTTAGATTAC
DNA 2: GTAATCTAAAGCAAATAATTC
Take B1: the Kd in the series with MotA D43K was approximately 500 nM; in the series with MotA K28E, approximately 500 nM; with MotA Q76R, approximately 600 nM; with MotA K59E it was approximately 500 nM; with MotA S80R, approximately 600 nM; with MotA K3E, approximately 500 nM.

The record behind these values is publication PMC2631437 (Molecular microbiology, 2008).
